Residue numbers refer to the chain shown, from its start.
Assays:
Experiment in all cases: fluorescence polarization; FP: 20 mM Hepes pH 7.5, 100 mM KCl, 2 mM MgCl2, 1 mM EDTA, 2 mM DTT, 1 mg/ml BSA, 5% glycerol, 75 nM polyT50 competitor, 2.5 nM probe, room temperature 30 min
flPOT1 WT = target: T1, flPOT1 WT (Homo sapiens, UniProt Q9NUX5 1-634); conditions: protein: recombinant; tags: N-terminal His6-pMocr, TEV-cleaved; label: 5' 6-FAM; single strand
T1 sequence: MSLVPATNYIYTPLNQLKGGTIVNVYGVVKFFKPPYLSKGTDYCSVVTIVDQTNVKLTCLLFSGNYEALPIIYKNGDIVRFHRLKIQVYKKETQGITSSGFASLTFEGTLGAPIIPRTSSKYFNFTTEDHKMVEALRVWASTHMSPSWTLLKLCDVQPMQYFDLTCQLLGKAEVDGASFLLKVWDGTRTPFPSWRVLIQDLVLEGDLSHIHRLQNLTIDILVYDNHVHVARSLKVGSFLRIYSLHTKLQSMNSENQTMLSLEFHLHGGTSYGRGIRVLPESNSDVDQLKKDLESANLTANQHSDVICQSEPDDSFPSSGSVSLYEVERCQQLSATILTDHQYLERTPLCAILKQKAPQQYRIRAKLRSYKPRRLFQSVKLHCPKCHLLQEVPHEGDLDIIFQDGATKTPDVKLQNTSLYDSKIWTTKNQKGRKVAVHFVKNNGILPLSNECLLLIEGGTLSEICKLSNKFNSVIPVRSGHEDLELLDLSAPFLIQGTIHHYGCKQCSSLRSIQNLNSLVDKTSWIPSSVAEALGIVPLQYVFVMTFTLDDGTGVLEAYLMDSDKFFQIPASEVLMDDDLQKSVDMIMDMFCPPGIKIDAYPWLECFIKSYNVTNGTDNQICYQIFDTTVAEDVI

flPOT1 C591W = target: T2, flPOT1 C591W (Homo sapiens, UniProt Q9NUX5 1-634, C591W); conditions: protein: recombinant; tags: N-terminal His6-pMocr, TEV-cleaved; label: 5' 6-FAM; single strand
T2 sequence: T1 sequence with C591W

flPOT1 P446Q;TPP1(87) = flPOT1 P446Q;TPP1(87) (Homo sapiens;Homo sapiens, UniProt Q9NUX5;Q96AP0 1-634;1-458, P446Q|); conditions: protein: recombinant;recombinant, tags: N-terminal His6-pMocr, TEV-cleaved;N-terminal His6-MBP, copies: 1;1, label: 5' 6-FAM, single strand
flPOT1 Q623H;TPP1(87) = flPOT1 Q623H;TPP1(87) (Homo sapiens;Homo sapiens, UniProt Q9NUX5;Q96AP0 1-634;1-458, Q623H|); conditions: protein: recombinant;recombinant, tags: N-terminal His6-pMocr, TEV-cleaved;N-terminal His6-MBP, copies: 1;1, label: 5' 6-FAM, single strand
flPOT1 C591W;TPP1(87) = flPOT1 C591W;TPP1(87) (Homo sapiens;Homo sapiens, UniProt Q9NUX5;Q96AP0 1-634;1-458, C591W|); conditions: protein: recombinant;recombinant, tags: N-terminal His6-pMocr, TEV-cleaved;N-terminal His6-MBP, copies: 1;1, label: 5' 6-FAM, single strand
flPOT1 Q623H = target: T3, flPOT1 Q623H (Homo sapiens, UniProt Q9NUX5 1-634, Q623H); conditions: protein: recombinant; tags: N-terminal His6-pMocr, TEV-cleaved; label: 5' 6-FAM; single strand
T3 sequence: T1 sequence with Q623H

flPOT1 C591W;TPP1(87), sequence (Q9NUX5 whole entry C591W, chain 1 of 2): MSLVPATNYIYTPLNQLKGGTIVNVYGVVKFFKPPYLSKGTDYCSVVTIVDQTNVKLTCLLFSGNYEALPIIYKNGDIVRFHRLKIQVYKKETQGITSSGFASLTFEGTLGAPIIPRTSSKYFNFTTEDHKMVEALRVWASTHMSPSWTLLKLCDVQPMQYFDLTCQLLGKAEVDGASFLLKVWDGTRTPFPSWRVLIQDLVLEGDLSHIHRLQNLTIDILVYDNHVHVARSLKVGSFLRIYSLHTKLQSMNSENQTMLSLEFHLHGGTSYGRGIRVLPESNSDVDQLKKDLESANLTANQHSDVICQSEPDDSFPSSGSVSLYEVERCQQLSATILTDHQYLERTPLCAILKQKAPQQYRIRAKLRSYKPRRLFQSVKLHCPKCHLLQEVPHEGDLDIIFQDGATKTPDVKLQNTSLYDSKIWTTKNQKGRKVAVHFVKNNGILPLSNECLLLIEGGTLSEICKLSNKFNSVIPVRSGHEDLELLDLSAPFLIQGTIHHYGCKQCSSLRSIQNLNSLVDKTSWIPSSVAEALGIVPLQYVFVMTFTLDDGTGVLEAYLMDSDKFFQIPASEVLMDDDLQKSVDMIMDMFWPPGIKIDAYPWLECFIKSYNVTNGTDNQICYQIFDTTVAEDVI
flPOT1 C591W;TPP1(87), sequence (Q96AP0 whole entry, chain 2 of 2): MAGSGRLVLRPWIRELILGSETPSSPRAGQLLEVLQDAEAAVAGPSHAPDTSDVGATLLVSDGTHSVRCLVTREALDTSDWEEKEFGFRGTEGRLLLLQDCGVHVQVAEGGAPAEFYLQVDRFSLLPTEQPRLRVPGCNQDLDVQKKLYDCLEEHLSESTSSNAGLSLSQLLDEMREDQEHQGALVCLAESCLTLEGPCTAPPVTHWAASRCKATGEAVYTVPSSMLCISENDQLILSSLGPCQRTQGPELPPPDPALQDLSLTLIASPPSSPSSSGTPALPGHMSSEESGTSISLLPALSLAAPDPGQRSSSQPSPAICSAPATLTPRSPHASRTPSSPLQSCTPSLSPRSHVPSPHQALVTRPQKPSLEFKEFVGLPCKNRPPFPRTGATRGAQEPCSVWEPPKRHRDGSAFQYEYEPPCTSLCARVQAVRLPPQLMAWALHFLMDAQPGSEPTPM
flPOT1 Q623H;TPP1(87), sequence (Q9NUX5 whole entry Q623H, chain 1 of 2): as the sequence (Q9NUX5 whole entry C591W, chain 1 of 2) above, with W591C, Q623H counted along it
flPOT1 Q623H;TPP1(87), sequence (Q96AP0 whole entry, chain 2 of 2): as the sequence (Q96AP0 whole entry, chain 2 of 2) above
flPOT1 P446Q;TPP1(87), sequence (Q9NUX5 whole entry P446Q, chain 1 of 2): as the sequence (Q9NUX5 whole entry C591W, chain 1 of 2) above, with P446Q, W591C counted along it
flPOT1 P446Q;TPP1(87), sequence (Q96AP0 whole entry, chain 2 of 2): as the sequence (Q96AP0 whole entry, chain 2 of 2) above

TTAGGGTTAGGGTTAGGG (ssDNA) [telomeric 18mer (TTAGGG)3]
Kd (flPOT1 WT): ~0.02 µM | Kd (flPOT1 C591W): ~0.02 µM | Kd (flPOT1 P446Q;TPP1(87)): 0.0103 ± 0.001 µM | Kd (flPOT1 Q623H;TPP1(87)): 0.0089 ± 0.001 µM | Kd (flPOT1 C591W;TPP1(87)): 0.0156 ± 0.0025 µM | Kd (flPOT1 Q623H): ~0.02 µM

From article PMC5394233, “Structural and functional analysis of the human POT1-TPP1 telomeric complex” (Nature Communications, 2017)
